Reference: patent US7375083B2, “Pharmaceutical compositions for prevention of overdose or abuse” (Shire LLC, priority 2003, dated 2008)
Where a SMILES comes first, the peptide text is derived from it. The star is where a group is joined. X1 = COc1ccc2c3c1O[C@H]1C(O*)=CC[C@H]4[C@@H](C2)N(C)CC[C@]314

Assay: Intranasal bioavailability of hydrocodone conjugates in rats, LC/MS/MS
Details: intranasal, 1 mg/kg

With `CC[C@H](C)[C@H](NC(=O)[C@H](Cc1ccccc1)NC(=O)[C@H](Cc1ccccc1)NC(=O)[C@H](Cc1ccc(O)cc1)NC(=O)[C@@H](N)Cc1ccc(O)cc1)C(=O)OC1=CC[C@H]2[C@H]3Cc4ccc(OC)c5c4[C@@]2(CCN3C)[C@H]1O5` [YYFFI[SEQ ID NO: 8]-HC, Tyr-Tyr-Phe-Phe-Ile[SEQ ID NO: 8]-(6-O)-Hydrocodone] (H-YYFFI-X1) the “Mean HC (hydrocodone) concentration” value (0 min) was 0 ng/mL, the “Mean HC + HM concentration” value (0 min) was 0 ng/mL and the “Mean HM (hydromorphone) concentration” value (0 min) was 0 ng/mL. For the same molecule, the “Mean HC (hydrocodone) concentration” value (5 min) was 28 ng/mL, the “Mean HC + HM concentration” value (5 min) was 28 ng/mL and the “Mean HM (hydromorphone) concentration” value (5 min) was “bql^3”. For the same molecule, the “Mean HC (hydrocodone) concentration” value (15 min) was 27 ng/mL, the “Mean HC + HM concentration” value (15 min) was 27 ng/mL and the “Mean HM (hydromorphone) concentration” value (15 min) was “bql^4”. The “Mean HC (hydrocodone) concentration” value (30 min) was 16 ng/mL, the “Mean HC + HM concentration” value (30 min) was 16 ng/mL and the “Mean HM (hydromorphone) concentration” value (30 min) was “bql^5”. The “Mean HC (hydrocodone) concentration” value (60 min) was 21 ng/mL, the “Mean HC + HM concentration” value (60 min) was 21 ng/mL and the “Mean HM (hydromorphone) concentration” value (60 min) was “bql^6”.
